Experimental data published in publication PMC8643638 (Nucleic Acids Research, 2021).
Changes are numbered by the printed parent chain. Names and notes keep the numbering of the source. Values belong to the molecule of their own block, whether it stands above or below them.

What was measured:
Sis0811Δ268 = biological target: T1, Sis0811Δ268 (Saccharolobus islandicus, UniProt F0NH89); experiment: isothermal titration calorimetry, single-site model; assay type: binding
T1 sequence (F0NH89 1-268): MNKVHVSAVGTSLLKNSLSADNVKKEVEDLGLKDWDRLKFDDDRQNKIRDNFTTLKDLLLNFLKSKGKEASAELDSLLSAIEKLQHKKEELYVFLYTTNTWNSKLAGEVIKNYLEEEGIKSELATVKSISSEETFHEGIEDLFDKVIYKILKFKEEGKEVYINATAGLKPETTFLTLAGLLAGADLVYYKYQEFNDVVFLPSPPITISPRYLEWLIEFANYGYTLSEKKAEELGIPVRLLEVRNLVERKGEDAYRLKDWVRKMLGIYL

[1] = biological target: T2, Sis0811 (SisRN0811), full length (Saccharolobus islandicus, UniProt F0NH89); experiment: as above; assay type: binding
T2 sequence (F0NH89 1-322): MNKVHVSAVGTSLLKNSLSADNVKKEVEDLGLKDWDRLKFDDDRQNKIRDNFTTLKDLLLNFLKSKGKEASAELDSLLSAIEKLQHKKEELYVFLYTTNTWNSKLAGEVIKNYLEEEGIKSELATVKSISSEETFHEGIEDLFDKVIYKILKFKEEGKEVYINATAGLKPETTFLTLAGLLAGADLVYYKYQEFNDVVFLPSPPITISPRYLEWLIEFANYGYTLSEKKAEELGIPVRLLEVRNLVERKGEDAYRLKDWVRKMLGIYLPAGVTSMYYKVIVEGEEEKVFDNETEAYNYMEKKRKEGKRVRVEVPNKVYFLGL

SEC-MALS = biological target: the molecule itself; experiment: SEC-MALS
crystal structure = biological target: the molecule itself; experiment: crystal structure

Kd (Sis0811Δ268): 5.9 nM
Kd [1]: 9.1 nM
Molecule: Nc1ncnc2c1ncn2[C@@H]1O[C@@H]2COP(=O)(O)O[C@H]3[C@@H](O)[C@H](n4cnc5c(N)ncnc54)O[C@@H]3COP(=O)(O)O[C@H]3[C@@H](O)[C@H](n4cnc5c(N)ncnc54)O[C@@H]3COP(=O)(O)O[C@H]3[C@@H](O)[C@H](n4cnc5c(N)ncnc54)O[C@@H]3COP(=O)(O)O[C@H]2[C@H]1O [cA4]

B1: Sis0811_(Δ268) (truncated Sis0811 lacking the C-terminal 54 residues) (domain or fragment, Sulfolobus islandicus REY15A, UniProt F0NH89 1-268, looked up)
chain: T1 sequence (F0NH89 1-268)
stoichiometry N (SEC-MALS): 2

B2: Sis0811_(Δ268)(S12G/K169G) (domain or fragment, Sulfolobus islandicus REY15A, UniProt F0NH89 1-268, looked up)
chain: T1 sequence (F0NH89 1-268) with S12G, K169G
binding result (crystal structure): binds

B3: Sis0811_(Δ268)(S12A) (domain or fragment, Sulfolobus islandicus REY15A, UniProt F0NH89 1-268, looked up)
chain: T1 sequence (F0NH89 1-268) with S12A
binding result (crystal structure): binds

B4: Sis0811 full length (standalone ring nuclease from Sulfolobus islandicus REY15A) (enzyme, UniProt F0NH89 1-322, looked up)
chain: T2 sequence (F0NH89 1-322)
stoichiometry N (SEC-MALS): 2
